Here are results for one molecule from paper PMC2691479, “SNX4 in Complex with Clathrin and Dynein: Implications for Endosome Movement” (PLoS ONE, 2009).

The target of the assay is T1, Sorting nexin 4 (SNX4), endogenous (human (endogenous in HEK293), UniProt O95219 1-450).
T1 construct: SNX4, endogenous in HEK293 cells, precipitated with anti-SNX4 (E-18); source: endogenous, HEK293 lysate
T1 sequence (looked up): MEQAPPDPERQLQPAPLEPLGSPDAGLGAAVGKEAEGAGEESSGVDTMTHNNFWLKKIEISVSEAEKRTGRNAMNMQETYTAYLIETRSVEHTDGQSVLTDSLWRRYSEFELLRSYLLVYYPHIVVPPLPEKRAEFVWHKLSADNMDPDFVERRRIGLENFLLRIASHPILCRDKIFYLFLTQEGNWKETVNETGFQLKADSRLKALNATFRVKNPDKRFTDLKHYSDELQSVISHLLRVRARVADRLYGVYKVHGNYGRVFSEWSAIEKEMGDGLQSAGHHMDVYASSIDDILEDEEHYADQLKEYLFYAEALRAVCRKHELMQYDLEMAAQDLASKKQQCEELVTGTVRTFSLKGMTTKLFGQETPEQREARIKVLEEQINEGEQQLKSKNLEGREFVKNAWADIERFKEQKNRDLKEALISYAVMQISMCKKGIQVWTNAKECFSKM
As to the kind of experiment: co-IP; anti-SNX4 (E-18) on Protein A Sepharose, HEK293 lysate (0.1 M NaCl, 10 mM Na2HPO4 pH 7.4, 1 mM EDTA, 1% Triton X-100), overnight at 4°C, Western blot; cells untreated, or transfected with control, SNX4 or CHC siRNA, or treated with nocodazole for 30 min. As to conditions: partners not purified.

B1: clathrin heavy chain (CHC), endogenous (natural protein, human (endogenous in HEK293), UniProt Q00610 1-1675, looked up)
chain: MAQILPIRFQEHLQLQNLGINPANIGFSTLTMESDKFICIREKVGEQAQVVIIDMNDPSNPIRRPISADSAIMNPASKVIALKAGKTLQIFNIEMKSKMKAHTMTDDVTFWKWISLNTVALVTDNAVYHWSMEGESQPVKMFDRHSSLAGCQIINYRTDAKQKWLLLTGISAQQNRVVGAMQLYSVDRKVSQPIEGHAASFAQFKMEGNAEESTLFCFAVRGQAGGKLHIIEVGTPPTGNQPFPKKAVDVFFPPEAQNDFPVAMQISEKHDVVFLITKYGYIHLYDLETGTCIYMNRISGETIFVTAPHEATAGIIGVNRKGQVLSVCVEEENIIPYITNVLQNPDLALRMAVRNNLAGAEELFARKFNALFAQGNYSEAAKVAANAPKGILRTPDTIRRFQSVPAQPGQTSPLLQYFGILLDQGQLNKYESLELCRPVLQQGRKQLLEKWLKEDKLECSEELGDLVKSVDPTLALSVYLRANVPNKVIQCFAETGQVQKIVLYAKKVGYTPDWIFLLRNVMRISPDQGQQFAQMLVQDEEPLADITQIVDVFMEYNLIQQCTAFLLDALKNNRPSEGPLQTRLLEMNLMHAPQVADAILGNQMFTHYDRAHIAQLCEKAGLLQRALEHFTDLYDIKRAVVHTHLLNPEWLVNYFGSLSVEDSLECLRAMLSANIRQNLQICVQVASKYHEQLSTQSLIELFESFKSFEGLFYFLGSIVNFSQDPDVHFKYIQAACKTGQIKEVERICRESNCYDPERVKNFLKEAKLTDQLPLIIVCDRFDFVHDLVLYLYRNNLQKYIEIYVQKVNPSRLPVVIGGLLDVDCSEDVIKNLILVVRGQFSTDELVAEVEKRNRLKLLLPWLEARIHEGCEEPATHNALAKIYIDSNNNPERFLRENPYYDSRVVGKYCEKRDPHLACVAYERGQCDLELINVCNENSLFKSLSRYLVRRKDPELWGSVLLESNPYRRPLIDQVVQTALSETQDPEEVSVTVKAFMTADLPNELIELLEKIVLDNSVFSEHRNLQNLLILTAIKADRTRVMEYINRLDNYDAPDIANIAISNELFEEAFAIFRKFDVNTSAVQVLIEHIGNLDRAYEFAERCNEPAVWSQLAKAQLQKGMVKEAIDSYIKADDPSSYMEVVQAANTSGNWEELVKYLQMARKKARESYVETELIFALAKTNRLAELEEFINGPNNAHIQQVGDRCYDEKMYDAAKLLYNNVSNFGRLASTLVHLGEYQAAVDGARKANSTRTWKEVCFACVDGKEFRLAQMCGLHIVVHADELEELINYYQDRGYFEELITMLEAALGLERAHMGMFTELAILYSKFKPQKMREHLELFWSRVNIPKVLRAAEQAHLWAELVFLYDKYEEYDNAIITMMNHPTDAWKEGQFKDIITKVANVELYYRAIQFYLEFKPLLLNDLLMVLSPRLDHTRAVNYFSKVKQLPLVKPYLRSVQNHNNKSVNESLNNLFITEEDYQALRTSIDAYDNFDNISLAQRLEKHELIEFRRIAAYLFKGNNRWKQSVELCKKDSLYKDAMQYASESKDTELAEELLQWFLQEEKRECFGACLFTCYDLLRPDVVLETAWRHNIMDFAMPYFIQVMKEYLTKVDKLDASESLRKEEEQATETQPIVYGQPQLMLTAGPSVAVPPQAPFGYGYTAPPYGQPQPGFGYSM
notes: clathrin heavy chain, endogenous in HEK293 cells, detected with anti-CHC; source: endogenous, HEK293 lysate
Regarding B1, the “fold change of CHC binding to SNX4, nocodazole-treated against untreated cells” value worked out at 2.3 fold.
